Source: the supplement of paper PMC10126150
± gives the standard deviation of the averaged measurements.

Tested on: ATP
Experiment: switch fluorescence ratio, 500 uM ATP over buffer (Cy3 cluster intensity, sum of 5 cycles each) (fold (ratio)); higher = stronger signal-on switching upon ATP binding; sequences stand for … in TCGTCGGCAGCGTCAGATGTGTATAAGAGACAGTTTTTTTTTTTTTTTTTTTTTTTTT…TC
Conditions: aptamer strand: ATP DNA aptamer (quencher-CACCTGGGGGAGTATTGCGGAGGAAGG + anchor), 100 nM annealed; ATP concentration: 500 uM
Method in brief: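 Switching-strand clusters labelled with Cy3 on a modified Illumina MiSeq flow-cell were annealed to 100 nM quencher-labelled ATP aptamer, imaged in selection buffer, and re-imaged after 15 min with 500 uM ATP at 22 °C. This was done over five cycles with NaOH stripping and re-annealing in between. The fluorescence ratio is summed target-cycle over summed buffer-cycle Cy3 intensity per cluster, averaged per switch-domain sequence, excluding clusters outside 100-1000 RFU.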
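Further: ATP exposure 15 min at 22 °C before imaging.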

Row | Sequence | switch fluorescence ratio
1 | GCTACCCATC | 1.1 ± 0.05
2 | GGTAGTGGGG | 0.987 ± 0.021
3 | ATACGTTCGG | 1.01 ± 0.0015
4 | CGGGCCTTTT | 1 ± 0.023
5 | GTTTTGGAGC | 1.03 ± 0.067
6 | ATGGTAGCCG | 0.981 ± 0.012
7 | TATAACATG | 1.009 ± 0.0025
8 | CTTAACGGGA | 0.99 ± 0.026
9 | GAGGGAATTA | 1.06 ± 0.11
10 | CAGTTATGTT | 0.993 ± 0.036
11 | GTTGGAGGGT | 0.977 ± 0.047
12 | AAGCATTTAC | 3.118 ± 0.021
13 | CGTGGCCTGT | 0.994 ± 0.029
14 | AATTGTATAT | 0.985 ± 0.042
15 | GAGAGGGGTA | 0.974 ± 0.014
16 | TATGTTTTTA | 1.02 ± 0.019
17 | ACGGGGGGGT | 1.09 ± 0.081
18 | TTTGGGACTT | 1.01 ± 0.035
19 | AATCGTATTC | 0.972 ± 0.011
20 | GAAGGATAGC | 0.998 ± 0.018
21 | GATGAAGGGA | 0.979 ± 0.013
22 | TAAAATCCGT | 0.981 ± 0.011
23 | AGTAGCAAAT | 1.2 ± 0.13

Row | Sequence | switch fluorescence ratio
24 | TGGGGTAGCT | 0.997 ± 0.015
25 | TGAGAATGGG | 0.995 ± 0.044
26 | TGGCAGGGTC | 0.9774 ± 0.0077
27 | AGGTCTGAAA | 1.04 ± 0.042
28 | CATCGGTAGA | 1.02 ± 0.017
29 | ATGATTAACT | 0.986 ± 0.036
30 | AGTTTACATT | 1.02 ± 0.026
31 | AAAGAGGCTT | 0.983 ± 0.039
32 | TAAGAGGTTT | 0.995 ± 0.01
33 | CATGGGGGTT | 0.991 ± 0.025
34 | CAGGCGCTCT | 1.04 ± 0.054
35 | GTATTCAAGA | 1 ± 0.043
36 | GGGGCCGAGA | 0.987 ± 0.012
37 | AGCGATAGTC | 1.56 ± 0.024
38 | TAATATGTTC | 1 ± 0.037
39 | CATTTATTTT | 1.01 ± 0.044
40 | ATTTTAAAGG | 0.977 ± 0.027
41 | ATTTGGGGAG | 1.02 ± 0.048
42 | AAGAGGCTGG | 0.99 ± 0.024
43 | GGACTCGGGC | 0.985 ± 0.031
44 | TTTTACGGAT | 1.01 ± 0.012
45 | TTGTTGGGTT | 1.02 ± 0.061
46 | CTAGGCTCAA | 1.004 ± 0.004

Row | Sequence | switch fluorescence ratio
47 | ACGACTGAAG | 1.014 ± 0.0015
48 | GAATTTTTGA | 0.991 ± 0.021
49 | GCCACATTCA | 0.991 ± 0.017
50 | CCTCTGGGAT | 2.24 ± 1.7
51 | GGATGTAGGG | 0.999 ± 0.029
52 | CTATCACAGG | 2.01 ± 0.08
53 | TTTCAATCAT | 0.983 ± 0.038
54 | AGGTTGCAGT | 1.01 ± 0.077
55 | TTTGTGGTTG | 0.992 ± 0.032
56 | GGGGATGGTG | 1 ± 0.035
57 | AGGCGTATTT | 0.9987 ± 0.0062
58 | TTTGGTTTCA | 0.994 ± 0.013
59 | GCTGATAATG | 0.978 ± 0.014
60 | AATATCAGGA | 1.026 ± 0.0083
61 | AGGGGAATTT | 0.992 ± 0.03
62 | ACTGATTTGT | 0.996 ± 0.048
63 | TGTGGGGAAT | 1.04 ± 0.075
64 | GGGAAGGTTT | 1.01 ± 0.012
65 | AGGGAACGAT | 0.9693 ± 0.0022
66 | ACTTGGGGCC | 0.971 ± 0.012
67 | CGTTATATTC | 1.08 ± 0.031
68 | ATGGTCGGCA | 0.985 ± 0.034
69 | CGGCGGGGTG | 1.04 ± 0.055

Row | Sequence | switch fluorescence ratio
70 | ATGATGGATT | 1.008 ± 0.0031
71 | AGGTTGTTGG | 0.966 ± 0.016
72 | AATGGGGAAA | 1 ± 0.028
73 | CAAGGGGGA | 0.995 ± 0.02
74 | AAGTAGCCGT | 1.19 ± 0.19
75 | AATCAGTCTG | 0.992 ± 0.013
76 | TCCTTCGGTT | 1.393 ± 0.0023
77 | ATCTTTCGAA | 1.03 ± 0.026
78 | GGGTATGTAG | 0.986 ± 0.024
79 | TATGCGTTGC | 1.02 ± 0.023
80 | TTCGAATATT | 1.13 ± 0.26
81 | TTGATGGGGT | 1.03 ± 0.1
82 | AAGGTTGTTG | 1 ± 0.012
83 | ATAAGAAGAT | 1.022 ± 0.0014
84 | GTTGAGTATA | 1.01 ± 0.033
85 | GTAGAGAACT | 1 ± 0.021
86 | TGGGATGCTT | 0.981 ± 0.011
87 | TAAGTTGTGT | 0.972 ± 0.036
88 | ATGATGGTTT | 1.02 ± 0.032
89 | ATCGGGGTC | 0.983 ± 0.027
90 | GGGACCTTGT | 1.01 ± 0.064
91 | CGTTGTGAGG | 1.03 ± 0.038
92 | ATGGTCGATG | 0.965 ± 0.02

Row | Sequence | switch fluorescence ratio
93 | TGGTGACTTA | 0.974 ± 0.039
94 | TGGCTTACAT | 1.0268 ± 0.00039
95 | GCTGGACTCG | 1.053 ± 0.0015
96 | TAACGGCTGC | 1 ± 0.051
97 | CAAGTTTGGG | 0.982 ± 0.019
98 | GAAAGGCGAG | 1.11 ± 0.053
99 | TTGCACGGGC | 1.007 ± 0.0052
100 | GGTATTCTGT | 0.951 ± 0.03
101 | ATAGTGGAGA | 1.01 ± 0.024
102 | CCAAGGGGCG | 0.987 ± 0.0077
103 | GCCGGCTTTG | 1.03 ± 0.026
104 | TTTTATAGAT | 0.977 ± 0.015
105 | ATACGGATGG | 0.984 ± 0.033
106 | GGTTGGGGTG | 1.01 ± 0.037
107 | TTTTGCTCAA | 0.996 ± 0.011
108 | TTTTTCACGA | 1.03 ± 0.019
109 | TTGTATGATT | 1.013 ± 0.0075
110 | GATGGGACAA | 1.008 ± 0.0027
111 | AAGCTGTTTC | 1.009 ± 0.0061
112 | CAGGTCAGGG | 0.998 ± 0.014
113 | ATCTTATTTG | 1.01 ± 0.033
114 | TCTGTCCTTC | 1.06 ± 0.054
115 | GCGGGGCCTG | 0.993 ± 0.051

Row | Sequence | switch fluorescence ratio
116 | TAGATAATGC | 1.075 ± 0.0049
117 | CTGGAATTCA | 1.02 ± 0.049
118 | TGGGTTAGAT | 0.976 ± 0.025
119 | GCCAGTTGTC | 0.998 ± 0.041
120 | AAAAAGATTT | 1.05 ± 0.081
121 | TATTCATCCA | 1.01 ± 0.02
122 | GGTGTCCGGT | 0.998 ± 0.03
123 | GGCCTGGATT | 1.05 ± 0.031
124 | AAGTCGGTGT | 0.988 ± 0.027
125 | CCCCGTTTCG | 1.08 ± 0.046
126 | TAGTGTTTGG | 1.02 ± 0.073
127 | CTTTAACGGT | 1 ± 0.026
128 | CTGCGTAGGG | 1.04 ± 0.029
129 | GCTGGTGTGG | 0.995 ± 0.011
130 | CTCGCTCGTT | 1.03 ± 0.018
131 | AAGCCAGATG | 1.076 ± 0.0092
132 | AGACTTTCTT | 1.04 ± 0.02
133 | TTTACTTAGG | 1.04 ± 0.023
134 | TGTTGGTGGT | 0.988 ± 0.036
135 | GATGTTGATG | 0.976 ± 0.014
136 | TTTATTACGC | 0.999 ± 0.053
137 | TTCCATCGGG | 0.993 ± 0.033
138 | AGCTTTAGGG | 0.9905 ± 0.0022

Row | Sequence | switch fluorescence ratio
139 | GGCTTGAAGG | 1.03 ± 0.032
140 | ACCGCCGTCA | 1.08 ± 0.012
141 | ATCGCCAGGC | 1.014 ± 0.0044
142 | CGGCAAGTGG | 1.05 ± 0.031
143 | TTAATTGCGA | 0.9861 ± 0.0048
144 | CGCGGGAGGG | 1.04 ± 0.022
145 | AATCGGTAGG | 1.01 ± 0.027
146 | GAGGATGGGT | 0.933 ± 0.024
147 | ATTCGACAGA | 1.02 ± 0.016
148 | GAGCTTGCGA | 1.03 ± 0.044
149 | ATAAAAGAAT | 0.998 ± 0.0085
150 | AGTTACAGTC | 1.05 ± 0.073
151 | TTATAGATTG | 1 ± 0.019
152 | TTTATGTCCG | 1.04 ± 0.042
153 | TCGTAACTTA | 1.03 ± 0.011
154 | CTACAAGTTA | 1.048 ± 0.0027
155 | TGATTCTTTT | 0.974 ± 0.037
156 | AACAGGGGCT | 1.09 ± 0.12
157 | CAGTCGCCAG | 1.02 ± 0.0024
